Test system: peptide library, one residue held at a place counted from the S/T acceptor
Assay: relative phosphorylation of the sub-library (ratio to the mean residue at this position); higher = residue favoured
Details: human
Procedure, shortened: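 Each biotinylated degenerate peptide sub-library fixed one residue at one position around a central Ser/Thr and was incubated with a purified recombinant kinase, a human or orthologue construct, in 384-well plates. The 90 min reactions, under kinase-specific conditions, contained 50 μM peptide and 50 μM ATP spiked with γ-32P-ATP. Phosphorylation was read by phosphorimaging spots on streptavidin membranes and quantifying them by densitometry. Relative sub-library phosphorylation expresses each value as a ratio to the mean residue at that position.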

MAPK3, construct: Full length, sequence (P27361 whole entry, looked up): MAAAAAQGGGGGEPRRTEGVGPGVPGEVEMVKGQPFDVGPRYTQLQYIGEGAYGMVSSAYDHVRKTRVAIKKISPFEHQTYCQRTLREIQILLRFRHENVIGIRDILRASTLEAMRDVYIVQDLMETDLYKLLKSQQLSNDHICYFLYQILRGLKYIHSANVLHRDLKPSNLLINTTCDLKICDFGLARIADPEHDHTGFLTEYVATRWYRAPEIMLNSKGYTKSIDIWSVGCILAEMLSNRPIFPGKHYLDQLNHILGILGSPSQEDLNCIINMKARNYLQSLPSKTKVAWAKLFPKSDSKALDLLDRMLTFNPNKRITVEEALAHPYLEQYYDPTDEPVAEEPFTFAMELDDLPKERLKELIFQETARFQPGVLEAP
MAP3K6, construct: aa620-950, sequence (O95382 620-950, looked up): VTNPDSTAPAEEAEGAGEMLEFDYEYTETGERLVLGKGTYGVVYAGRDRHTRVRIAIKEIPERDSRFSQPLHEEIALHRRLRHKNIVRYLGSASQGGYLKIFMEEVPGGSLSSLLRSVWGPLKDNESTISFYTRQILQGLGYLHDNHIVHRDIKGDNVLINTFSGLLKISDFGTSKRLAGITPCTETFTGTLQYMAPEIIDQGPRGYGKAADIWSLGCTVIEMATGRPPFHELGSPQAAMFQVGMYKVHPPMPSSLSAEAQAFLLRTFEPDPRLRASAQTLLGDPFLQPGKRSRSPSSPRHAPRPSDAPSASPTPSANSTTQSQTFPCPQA
MAP3K19, construct: aa941-end, sequence (Q56UN5 941-1328, looked up): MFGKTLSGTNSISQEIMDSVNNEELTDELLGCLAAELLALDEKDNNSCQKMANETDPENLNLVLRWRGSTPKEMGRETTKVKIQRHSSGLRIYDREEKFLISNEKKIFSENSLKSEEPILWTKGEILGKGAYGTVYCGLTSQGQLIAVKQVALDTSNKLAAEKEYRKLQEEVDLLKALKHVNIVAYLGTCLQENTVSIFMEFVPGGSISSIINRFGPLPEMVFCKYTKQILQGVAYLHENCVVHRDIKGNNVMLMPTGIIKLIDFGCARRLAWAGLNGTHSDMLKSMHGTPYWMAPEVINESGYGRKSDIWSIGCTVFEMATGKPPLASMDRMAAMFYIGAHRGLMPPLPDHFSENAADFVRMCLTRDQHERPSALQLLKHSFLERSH
MAPK15, construct: Full length, sequence (Q8TD08 whole entry, looked up): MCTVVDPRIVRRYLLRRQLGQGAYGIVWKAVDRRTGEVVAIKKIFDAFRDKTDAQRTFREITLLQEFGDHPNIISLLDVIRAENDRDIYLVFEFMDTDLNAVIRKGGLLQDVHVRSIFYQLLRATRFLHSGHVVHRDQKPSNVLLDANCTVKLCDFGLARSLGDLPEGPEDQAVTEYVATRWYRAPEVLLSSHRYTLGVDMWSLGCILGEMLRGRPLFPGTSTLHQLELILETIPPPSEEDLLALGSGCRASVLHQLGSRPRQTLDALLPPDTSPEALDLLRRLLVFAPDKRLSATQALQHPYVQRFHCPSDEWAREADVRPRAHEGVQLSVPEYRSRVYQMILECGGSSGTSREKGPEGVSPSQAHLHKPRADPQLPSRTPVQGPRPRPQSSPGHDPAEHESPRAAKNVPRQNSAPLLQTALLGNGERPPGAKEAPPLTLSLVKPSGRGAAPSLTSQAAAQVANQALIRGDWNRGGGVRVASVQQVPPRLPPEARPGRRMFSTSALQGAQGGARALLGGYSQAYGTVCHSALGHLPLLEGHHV

MAP3K6, construct: aa620-950 (from UniProt O95382)
relative phosphorylation
Details	at +1	at +2	at +3	at +4	at -1	at -2	at -3	at -4	at -5
A fixed	1.34	0.898	1.23	0.902	1.33	1.5	1.24	1.03	1.15
D fixed	0.184	0.304	0.38	0.371	0.366	0.366	0.474	0.589	0.603
E fixed	0.255	0.23	0.335	0.36	0.391	0.365	0.561	0.641	0.712
F fixed	0.74	0.907	1.12	1.04	0.584	0.622	0.872	0.93	0.875
G fixed	0.715	0.78	1.05	1.12	1.91	1.18	1.15	1.09	1.15
H fixed	1.4	1.41	1.02	1.26	1.12	1.16	1.35	1.32	1.24
I fixed	1.26	0.568	0.606	1.07	0.588	0.879	0.736	0.725	0.613
K fixed	0.426	1.54	1.26	1.82	1.1	0.972	1.03	1.3	1.32
L fixed	1.36	0.912	1.2	0.797	0.805	0.922	0.913	0.76	0.86
M fixed	1.73	1.01	0.995	0.908	1.13	0.758	0.859	1.31	0.869
N fixed	0.754	0.839	0.793	0.822	0.94	1.41	1.02	0.958	1.03
P fixed	0.354	0.498	1.1	0.931	0.896	1.16	0.774	0.824	1.08
Q fixed	0.844	0.83	0.946	0.931	0.891	1.25	1.08	1.02	1.14
R fixed	0.594	2.05	1.57	1.66	1.72	1.37	1.55	1.18	1.43
V fixed	1.62	0.726	0.984	0.853	0.917	1.35	0.984	1.02	0.996
W fixed	1.38	1.19	1.1	0.955	0.951	0.748	1.25	1.12	1.05
Y fixed	2.05	2.31	1.3	1.19	1.36	0.979	1.17	1.19	0.881
pThr fixed	0.602	0.585	0.681	0.261	0.574	0.9	0.725	0.845	0.914
pTyr fixed	0.421	0.294	0.614	0.356	0.673	0.548	0.787	0.736	0.917

MAP3K19, construct: aa941-end (from UniProt Q56UN5)
relative phosphorylation
Details	at +1	at +2	at +3	at +4	at -1	at -2	at -3	at -4	at -5
A fixed	0.458	0.666	0.903	0.975	0.853	1.02	0.971	1.05	1.27
D fixed	0.354	0.662	0.8	0.995	1.51	1.22	1.46	1.14	1.18
E fixed	0.386	0.508	0.765	0.822	0.913	0.851	1.03	1.1	0.864
F fixed	1.33	0.605	0.974	0.784	0.832	1.67	0.921	1.04	1.08
G fixed	0.531	0.809	1.15	1.23	0.867	0.977	1.16	1.16	1.24
H fixed	0.999	1.35	1.1	1.12	1.25	1.34	1.08	1.06	1.13
I fixed	1.7	0.677	0.741	0.801	0.586	0.558	0.65	0.701	0.679
K fixed	0.396	2.23	1.32	1.38	1	0.363	0.877	0.834	0.892
L fixed	2.2	0.55	0.818	0.817	1.13	0.506	0.725	0.883	0.736
M fixed	1.56	0.625	0.803	0.863	1.03	0.821	0.95	0.969	0.87
N fixed	0.52	1.43	1.22	1.05	1.25	1.08	1.39	1.1	1.05
P fixed	0.202	0.646	1.27	1.34	1.08	0.687	0.953	1.06	1.01
Q fixed	0.485	0.932	0.986	1.26	0.941	0.856	1.04	0.936	0.818
R fixed	0.433	3	1.18	1.05	0.914	0.484	0.923	0.888	1.02
V fixed	1.17	0.883	0.919	0.756	0.615	0.599	0.606	0.81	0.879
W fixed	2.7	0.673	1.06	0.916	0.841	1.79	1.21	1.21	1.28
Y fixed	1.57	0.755	0.982	0.838	1.38	2.18	1.05	1.05	1.02
pThr fixed	0.786	1.14	1.09	1.08	0.755	0.741	1.09	1.13	1.19
pTyr fixed	0.541	0.47	0.675	0.662	1.35	0.832	1.09	0.908	0.807

MAPK3, construct: Full length (from UniProt P27361)
relative phosphorylation
Details	at +1	at +2	at +3	at +4	at -1	at -2	at -3	at -4	at -5
A fixed	1.21	1.07	1.04	0.886	0.999	1.2	1.23	1.09	1.06
D fixed	0.0833	0.582	0.614	0.81	0.5	0.407	0.989	1.19	1.31
E fixed	0.0773	0.244	0.706	0.732	0.509	0.454	1.27	1.35	1.2
F fixed	0.372	1.1	1.15	1.22	0.802	0.577	0.808	0.946	1.09
G fixed	0.947	1.34	1.13	1.02	1	0.724	1.32	1.25	1.25
H fixed	0.217	1.26	1.11	1.07	0.975	0.461	0.949	0.914	1.11
I fixed	0.292	0.775	0.878	0.943	0.67	1.18	0.792	0.82	0.724
K fixed	0.179	1.58	0.699	1.31	1.35	0.345	0.663	0.874	0.904
L fixed	0.398	1.11	1.08	1.02	1.31	1.42	0.917	0.958	0.903
M fixed	0.276	0.987	0.971	1.09	1.39	1.29	1.08	1.09	0.907
N fixed	0.155	1.26	0.786	0.931	0.785	0.613	0.989	0.855	0.93
P fixed	11.6	0.628	1.56	0.896	1.26	4.97	1.74	1.18	1.11
Q fixed	0.159	0.788	0.736	1.01	1.1	0.82	1.05	0.942	0.975
R fixed	0.223	2.13	0.979	1.1	1.85	0.566	0.907	0.905	0.841
V fixed	0.291	0.711	0.879	0.903	0.746	1.22	0.837	0.777	0.783
W fixed	0.261	0.681	1.55	1.12	0.654	0.386	0.659	0.913	0.781
Y fixed	0.211	0.744	1.13	0.931	1.08	0.373	0.798	0.948	1.13
pThr fixed	0.338	0.662	0.663	0.75	0.373	0.941	1.23	1.23	1.41
pTyr fixed	0.323	0.38	1.01	1.08	0.444	0.686	1.29	1.37	1.25

MAPK15, construct: Full length (from UniProt Q8TD08)
relative phosphorylation
Details	at +1	at +2	at +3	at +4	at -1	at -2	at -3	at -4	at -5
A fixed	1.98	0.19	1.12	1.12	0.933	1.36	1.3	1.04	1.08
D fixed	0.214	0.135	0.665	0.726	0.643	0.632	0.992	0.893	0.987
E fixed	0.31	0.115	0.655	0.643	0.517	0.59	0.941	1.01	0.859
F fixed	1.22	0.19	0.874	0.928	1.08	0.688	0.88	0.875	1.06
G fixed	1.05	0.226	1.2	1.11	0.767	0.947	1.5	1.18	1.09
H fixed	1.41	0.573	0.984	0.976	1.06	0.738	1.04	1.09	1.07
I fixed	0.221	0.173	0.598	0.864	0.897	1.17	0.869	0.869	0.831
K fixed	0.432	0.992	1.61	1.41	1.11	0.651	0.9	0.997	1.26
L fixed	0.27	0.189	0.85	0.95	1.55	1.53	0.985	0.959	0.754
M fixed	0.369	0.17	0.799	0.964	1.28	1.31	0.972	0.951	0.815
N fixed	0.436	0.247	0.863	0.853	0.789	0.944	0.965	1.04	0.89
P fixed	4.86	0.192	1.05	1.11	0.93	2.07	1.1	1.06	1.19
Q fixed	0.578	0.498	0.897	1.02	0.888	1.01	1.02	1.03	1.04
R fixed	1.04	12.5	2.31	1.46	1.23	0.817	0.928	1.1	1.24
V fixed	0.421	0.184	0.792	0.841	0.933	1.13	0.864	0.941	0.914
W fixed	0.758	0.232	0.825	1.17	1.06	0.719	0.88	1.02	0.864
Y fixed	1.44	0.225	0.903	0.866	1.34	0.69	0.872	0.956	1.07
pThr fixed	0.325	0.205	0.653	0.578	0.415	0.772	0.936	0.887	0.904
pTyr fixed	0.601	0.177	0.592	0.512	0.486	0.681	0.862	0.905	1.01
